Data reported in patent publication US20180066068A9, “ANTI-PSYK ANTIBODY MOLECULES AND USE OF SAME FOR SYK-TARGETED THERAPY” (Millennium Pharmaceuticals, Inc., priority 2014, published 2018).

Assays:
Type in all cases: binding
[1] = target: T1, pSYK Y525/6 in DLBCL tissue biopsies (Homo sapiens, UniProt P43405); test: IHC on recently biopsied DLBCL tissues
T1 construct: from tissue; host or cells: FFPE human DLBCL biopsies; one normal lymph node

[2] = target: T2, pSYK in HBL1 and Ly10 xenografts (Homo sapiens, UniProt P43405); test: IHC on medium- and low-expressing xenografts
T2 construct: from tissue; host or cells: FFPE HBL1 and OCI-LY10 xenografts in SCID mice
Experimental: An IHC assay using the MIL81-1-8 antibody was developed to evaluate pSYK expression in HBL1 xenograft tissue and several primary human tissue xenografts (PHTX-95L, OCI LY10) derived from diffuse large B-cell lymphoma (DLBCL) patient samples in female SCID mice. pSYK protein levels in Formalin-Fixed, Paraffin-Embedded (FFPE) tissues were assessed on […] thick sections and incubated with MIL81-1-8 antibody ([…]) for 1 hour on the Ventana Medical Systems (Tucson, Ariz.) Discovery XT automated stainer. Antibodies were incubated with OmniMap goat anti-rabbit HRP secondary antibody (Ventana Medical Systems) for 16 minutes and developed with the 3,3′-diaminobexidine (DAB) substrate map system. Slides were counterstained with hematoxylin and imaged using the Aperio whole slide scanning system (XT).
Similar results were obtained with the MIL81-1-8 subclone using an automated protocol on a Leica automated stainer. pSYK protein levels in Formalin-Fixed, Paraffin-Embedded tissues were incubated with MIL81-1-8 antibody ([…]) for 30 minutes on the Leica Microsystems (Wetzlar, Germany) BOND RX automated stainer. Antibodies were incubated with a rabbit anti-goat HRP secondary antibody (Leica Laboratories) and developed with the 3,3′-diaminobexidine (DAB) substrate map system. Slides were counterstained with hematoxylin and imaged using the Aperio whole slide scanning system (XT). […]

[3] = target: T3, pSYK in pervanadate-treated WSU-DLCL cells, PHTX-95L xenograft, DLBCL TMA core, normal spleen (Homo sapiens, UniProt P43405); test: Validation of MIL81-1-8 IHC specificity
T3 construct: from tissue; host or cells: pellet of pervanadate-treated WSU-DLCL cells; PHTX-95L xenograft; DLBCL tissue microarray core; normal spleen
Experimental: Validation of the specificity MIL81-1-8 on lymphoma cells used a pellet of pervanadate-treated WSU-DLCL cells, PHTX-95L xenograft or a TMA core of a DLBCL tumor. When peptide immunogen was added to the antibody prior to incubation with the tissue, the pSYK IHC staining was blocked (FIG. 9). Another validation of the specificity of MIL81-1-8 staining used phosphatase treatment of the slides prior to antibody incubation. […] Due to this nuclear staining of phosphatase-treated samples, staining of only nuclei in samples was generally judged to be off-target and thus pSYK-negative.

[4] = target: T4, pSYK in PHTX 95L xenografts (Homo sapiens, UniProt P43405); test: Quantitative pSYK IHC on PHTX 95L xenografts (Positive Pixel Count)
T4 construct: from tissue; host or cells: FFPE sections of PHTX-95L primary human lymphoma xenografts grown in NOD SCID mice
Experimental: Final selection of antibody was performed by qualitative and quantitative assessment of IHC results of staining pSYK in PHTX 95L xenografts from untreated or SYK inhibitor-treated mice described above using the Ventana Discovery XT autostainer and the same staining protocols as previous assays (see FIG. 2).
Quantitative analysis was performed with Aperio Spectrum analysis following Postitive Pixel Count v9 Algorithm at 20× magnification. The Positive pixel analysis was used rather than a signal-to-noise ratio because of program difficulties defining true cytoplasmic staining from background for positive amounts below 5%. The table below has the results of the quantitive analysis.

[5] = target: T5, pSYK in PHTX95L xenograft (Homo sapiens, UniProt P43405); test: IHC on Leica BOND RX, PHTX95L xenograft background; settings: MIL81-1-8 at 1:3200, 2175 at 1:25
T5 construct: from tissue; host or cells: FFPE sections of PHTX-95L primary human lymphoma xenografts grown in NOD SCID mice
Experimental: Similar results were obtained with the MIL81-1-8 subclone using an automated protocol on a Leica automated stainer. pSYK protein levels in Formalin-Fixed, Paraffin-Embedded tissues were incubated with MIL81-1-8 antibody ([…]) for 30 minutes on the Leica Microsystems (Wetzlar, Germany) BOND RX automated stainer. Antibodies were incubated with a rabbit anti-goat HRP secondary antibody (Leica Laboratories) and developed with the 3,3′-diaminobexidine (DAB) substrate map system. Slides were counterstained with hematoxylin and imaged using the Aperio whole slide scanning system (XT). MIL81-1-8 antibody was compared to commercial pSYK antibody Epitomics pSYK Catalog No. 2175-1 (Y525/526) for staining specificity. […] A detectable trend toward reduction of pSYK staining also was seen by the anti-pSYK MIL81-1-8 antibody in medium- and low-expressing xenograft samples from mice treated with a SYK inhibitor (FIGS. 5 to 7).

Staining in recently biopsied DLBCL tissues versus Epitomics 2175-1 [1]: much stronger and cleaner
Detection of pSYK / distinction of untreated and Syk-inhibitor treated tumors [2]: able to specifically detect
pSYK IHC staining after phosphatase treatment of slides ([3]; except nuclear staining of normal spleen): eliminated epitopes
pSYK IHC staining after adding peptide immunogen to the antibody ([3]; peptide blocking): blocked
ratio of Percent Positive Pixel per total Pixel, PHTX 95L Untreated ([4]; 20× magnification, Positive Pixel Count v9): 25.19%
ratio of Percent Positive Pixel per total Pixel, PHTX95L SYK Inhibitor ([4]; mice treated with SYK inhibitor (Compound A), 20× magnification): 11.30%
IHC performance compared with Epitomics 2175-1 ([4]; stains of PHTX-95L xenografts, intensity and signal to noise ratio, listed as MIL81-1-8): performing best and best
IHC background [5]: minimal background
B1: Subclone 1-8: rabbit monoclonal anti-pSYK Y525/526 antibody from hybridoma subclone of multiclone 81-1 (antibody)
heavy: QSVEESGGRLVTPGTPLTLTCTVSGIDLNSYIMSWVRQAPGKGLEWIGIISRRGNTYYASWPKGRFTISKTSTTVDLKITSPTTEDTATYFCARAYLYTSGTMSVWGPGTLVTVSSGQPKAPSVFPLAPCCGDTPSSTVTLGCLVKGYLPEPVTVTWNSGTLTNGVRTFPSVRQSSGLYSLSSVVSVTSSSQPVTCNVAHPATNTKVDKTVAPSTCSKPTCPPPELLGGPSVFIFPPKPKDTLMISRTPEVTCVVVDVSQDDPEVQFTWYINNEQVRTARPPLREQQFNSTIRVVSTLPIAHQDWLRGKEFKCKVHNKALPAPIEKTISKARGQPLEPKVYTMGPPREELSSRSVSLTCMINGFYPSDISVEWEKNGKAEDNYKTTPAVLDSDGSYFLYSKLSVPTSEWQRGDVFTCSVMHEALHNHYTQKSISRSPGK
light: ADIVMTQTPSPVEAAVGGTVTIKCQASESISSYLSWYQQKPGQPPKLLIYRASTLVSGVPSRFKGSGSGTDFTLTISDLECADAATYYCQHTYFGSDYVGGFGGGTEVVVKGDPVAPTVLIFPPAADQVATGTVTIVCVANKYFPDVTVTWEVDGTTQTTGIENSKTPQNSADCTYNLSSTLTLTSTQYNSHKEYTCKVTQGTTSVVQSFNRGDC
